Measured values as given in US7138236.

Tested on: p53, unphosphorylated (recombinant full-length)

Substance	in vitro kinase assay (32P incorporation, autoradiography)	phosphorylation site mapping (tryptic/Asp-N peptides, Edman degradation)	kinase assay of chromatographic fractions, Western blot with p53 Ser15-specific antibodies
ATM (A-T mutated) protein purified from HeLa cell nuclear extract	several independently purified ATM preparations were consistently found to phosphorylate p53 with high efficiency	the sites of phosphorylation correspond to p53 residues Ser-15 and Thr-18	
ATR (FRP-1) purified from HeLa nuclear extract			this residue is also phosphorylated by a kinase activity associated with ATR
